Test: label from the status in PepcDB records
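Further: failed if final PepcDB status was selected cloned or expressed and not failed if soluble or beyond.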

## IVISAFEQTLWRSEPETPLKVYQLLSGAHYRTSPLDLRRMMDAPGQHFLQAAGENEIAGALCLVDEGGLSQELSQAVWAGYRRPRGNLVAQSLAAHGSNPLAATLRGRRVSRIAVHPARQREGTGRQLIAGALQYIHDLDYLSVSFGYTEELWRFWQRCGFVLVRMGNHREASSGCYTAMALLPM
  protein production: failed

## MFRDEDETTPPRAREVERLKKRLYRLKYLAHKYKRAEVVQNALLELSHIATQVSSLEEFYLGVHHHLKQLISADNFFIATLDVNSGAISVPFFADEKDAHPSQLYPEQSLSTLLQQGLTGYVFRTGQTLLCDESKVDELVNAEEIVNLGSPCHLWLGVPIKHEDIVTAVLVVQTYDTNVSYGDIEVELMTFICHHITGVMERLKHQEQLEQAIQQ
  protein production: failed

## MFKSVAKLGKSPIFYLNSQRLIHIKTLTTPNENALKFLSTDGEMLQTRGSKSIVIKNTDENLINHSKLAQQIFLQCPGVESLMIGDDFLTINKDRMVHWNSIKPEIIDLLTKQLAYGEDVISKEFHAVQEEEGEGGYKINMPKFELTEEDEEVSELIEELIDTRIRPAILEDGGDIDYRGWDPKTGTVYLRLQGACTSCSSSEVTLKYGIESMLKHYVDEVKEVIQIMDPEQEIALKEFDKLEKKLESSKNTSHEK
  protein production: failed

## MTKSTPHPSSIIKAEQQSLLYLHIAVFLFGGTALFSKLIGLPALDITVYRTGIAALALFILLTLQKKQISLSSMKDYGIAILLGCVVGLHWVTYFTGMQMAGVTVGMIAFFTYPVITVFIEPFFNRTVPKMKDMITAFVVIIGIVLLIPEISFGNQITLGIVTGIISAVFFALRNILHKNYFSHYSGPHTMLYQTLVACLMLCLFVEVPPMQVTESDWLLLLLVGVVFTATPHALFASSLRSLSATTAGLISCLQPLYGSILAIILLHERPDILTIIGGLLVVSAAIFETWSVSRGRR
  protein production: failed

## MGILDEIMNQEHFDIKTSLDYINEYEKLLPFDSEIHTARAVTYFFGEEYKLAEEHIRKALKFRPNNYDNNFYLANILIAMGEYPDAIKSAVLSVTFLKHFAKIQGYDYINDKLFYYNEQVKTLIEYCIENIKDTNVLEDLKRFFGFIELSIAKFPVCFYGDKWNILVGEYLNKDLNSEYNDYICFYSDTYNNMLSDFQKKLYTVINNSEISSICPIESFKSMTAKEFSLDNGKYIIPIATTEYNQVIDFKIKNTNFKSQQVDPPGFFKYYRVNNGISLNSDKDVIIGKPIKLGFKEKNKKLVFTIFIDALSQKYLLETKYKSMPYTKAFFDKGIIFENCYSAGEWTYPSLTSVVTGLYTTNHHFLHSSAGYKYPDDIDLFSEIMKKNEYFTANISGTYALAPYSSGFRGFDRTVFKNSLGFSDSVIINDAIKHIESFKETNQFVFMSLSDVHKILDDIENYSVNYDIVNQTSLDIETSLSKRSSFVSAWQKYDEEAIKKYDVALRELDRQLKGIYDYILQNYSEEEYLISIFSDHGASFLGKDDFLLKSNITNSVLMVRGSGSASNGNTEYISNMDLIPIILKLANIEHDLSKYDCVLPKTLGGKGREFTYSESIYPGQTYKAMVNNDKYCYILETKGITDIDGTINFDEYSDSVFDKKEDKEVKDNDILEYYREIVYNHIKRNIKY
  protein production: failed

## YYNIYYPRGKDFYNVGGDYKFFWKRFSLLGETAIDKCGTWATMNMLRYSPKGGTQLIVMNRYYDAKYQSVYARSIGEGSTVQNESGFYIGLETSILKYIKMTCYGDFFYFPWKKYLVSKAGTKGLDGLLQLSYSPTYELEMFIRYRYKKKEKDFTAADKTKQTIPSIQQKCRYQLNYSVKDKLTLKTIADYVRINFRGQSASNGFLVSQSAAYTFHLLPLQLDLSAAWFNTDDYNSRLTIYEKSVLYAFSMPSFYYKGMRVAVNARYELNKHIILQAKYGTTHYFNRDKISSALEEIDGSTKSDLYLQLRLKF
  protein production: failed

## ARRPMNAFLLFCKRHRSLVRQEHPRLDNRGATKILADWWAVLDPKEKQKYTDMAKEYKDAFMKANPGYR
  protein production: not failed

## MIFERIKSEGLAHLSYLIGSGDEAIVIDPRRDCQVYFDLARSKGMKIKYIFETHRNEDYIIGSLELEKLTDAGIYHGSGVDFKYGNILKKDRQEFIFGALKLTALHTPGHTDESMSYVLTDPDAGKEPIMVFTGDALFVGDVGRTDLYGPEEVPRLAANLYDSIFNKILPLGDGVILCPAHGAGSLCGGAISNREYSTLGLEKVQNPVLKKTEKEEFVKFKLEEKLEFPPYFKKMEQYNLQGPPLLQSLPIPKLLSPDEFKAEMEKGAVVVDTRMPHSFGGALIKGSYSIWLEGLPSFAGWMLPYDKPILLVLEEKEQLETAVRYLVRLGYDNMRGFLNGGIAAWYMEALQIDGFNLLSVHDLKSKLEKDEEIVILDVRSNEEWEEGHIEGARHIYVGHVEENLDEIPKDCPIVVYCGSARRSNIAASVLKKHGYRKIYNVLGSMVAWKNAGYEVVK
  protein production: failed

## MKIFNLLVGGAPENLPDNLNDFEGDWIGVDRGALKLIEMGLIPEVAVGDFDSVNDQEFKEIEANAKQVIKLDPVKDDTDTESGLKYALDHDPRAHIRVLGISGGRLDHLLANVLMVLQDRFRMFAEQIELIDRQNNIRFFNSGKHTVDKLEGFKYLSFIPLTQIDVLTLDDEKYELHNAMVSNARAYVSNEFIDSKATVYLSNGLVAVIQSKD
  protein production: failed

## MWNLTRRQWRQILVTVILALAVLLFFLWPLPKYIEGPGEADNLKSFVTVDKHPDKHKGKYMITSVALAQARPVSYLYAKFNPYYSIESVASVTGGESNATYDKVQNFYMKSAINESIYTAYRAAHKTVKRHYLGIYVLSVDRQSPFAQALKVGDTVTEVNGHHFNSMTGYQRYIQRQKVGQRATITYQRNGKTHHVTAKLMRLPTKKAGIGITLTDNVKVSARPKVQVNPGNIGGPSGGLMFSLQIYTQVTGQDLRHGRKIAGTGTVDGDGNVGEIGGIDKKIIAAKRAGATVFFAPYVKPTKLLLKYEEQHQTNYQLAKATAKKYAPNMKVVPVKSFDDAVHYLRTHR
  protein production: failed

## MAEITEKVLKKPNAIPDVFERKGGSAPTATHYCAGCGHGIIHKLMAEAIDELEIQDRCVLISPVGCAVFAYYYFDCGNIQVAHGRAPAVGTGVSRAEDNAIVMSYQGDGDLASIGLNETIQAANRGEKMAVFFVNNTVYGMTGGQMAPTTLIGEKTVTCQTGRDPRFAGYPIHMCELLSSLKAPVFIERVSVSDIAHIRKAKRAIKKALEIQRDGKGYAFVEILSPCPTNLRQDANAAQKFINEEMEKEFPLQNFRDRSAEVETLNRGESDFSKECLDNIFEVNSKGAEDPSEDLSFEEKLVKIAGFGGQGVLSMGLTLAEAACRDQKYVSWYPSYGPEQRGGTSNCSVIISGHEIGSPVVYSPGVLIALNKPSLENFAKDVKTGGTIIYDENIGDFEIPNGVTAIKVPASKIATEMGVSRAANTVMLGVLSALGYTGLSESVFVGAIEQTFSKKPKLIPINVEILNAGISWAKENLAL
  protein production: failed

## MKKILCAVLLLFTGASWANSDDLETSGDVVHLLLPATALGATLFYEEGHEGSWQLLKAAVSSRVIVEGLKLGVNKDRPDGSGDDSFPSGHTSDSFMAATFIQQRYGWQYGLPAYLAASYVGYTRVESDKHYVEDVLAGAAIGMLAGWYFTEPYKGITVTPLAHNGVYGLYISGQF
  protein production: failed

## MPTKTLRIPTTDGQADAFAAFPDHSERYPGVLMYADGFGIRPVLREMALELAGHGYYVLVPNSFYRHGPAPLVELPEYIGEGIRPAVFAQLMPLIEAHTAERVLSDADAYLRFLTTQPEVGAGPVAVTGYCIGGLYAMRTAAAHPDQVAAVAAFHGPVGVDGANLFSKLTAQVHLGHAEGDMTPEALGELNQALDAAGVGYTSEIYPGTIHGFTMSDTDAYSAFGLKRHWDRLLPLLDRTL
  protein production: failed

## MKGSVKKDKKTGKYFYIVDIDIDPLTGKRKQKKKRGFTSKKEAENALTNLLSEVHTGTYVEPSKLSYGEYLESWFNTKRHSVGIQTAKVLKGYLNSRIIPSLGNIKLAKLTSLHMQNYVNSLRDEGLKRGTIEKIIKVIRNSLEHAIDLELITKNVAAKTKLPKADKEELTVWNEQEVQLFLKAAQDGRYSIVFHMALVTGMRQGELLGLRWKDVDLEKGHLIISQTLSHDGKTFLVGGKTKSSLRKILLPASTIAKLKKHRAVILKEKLSQGEEYQDNDLVMCTPSGTPINPANVRRSLNALIQKAAVPKIRFHDLRHTHATLLLAKGVNVKVISERLGHSNIKITLDTYSHVLPTMQEDAVNKMEEIL
  protein production: failed

## MELELDDDVFFADISKQLNLLITDEDEQNPISLSSSVSFQGLFRGNYQTSATPYMMYNEQINYNVIRESKGTGVFIPRSSQPRRKHNHHPHQKKQGRFIGSFIPKQQFPHHGHDNNLTTLNNNNQESITFHHASTNPRRTYRDAASLFT
  protein production: failed

## MKVFVIGAGLMGRGIAIAIASKHEVVLQDVSEKALEAAREQIPEELLSKIEFTTTLEKVKDCDIVMEAVFEDLNTKVEVLREVERLTNAPLCSNTSVISVDDIAERLDSPSRFLGVHWMNPPHVMPLVEIVISRFTDSKTVAFVEGFLRELGKEVVVCKGQSLVNRFNAAVLSEASRMIEEGVRAEDVDRVWKHHLGLLYTLFGPLGNLDYIGLDVAYYASLYLYKRFGDEKFKPPEWLQEKIKKGEVGVKAGKGIYEYGPKAYEERVERLKKLLRFLGLE
  protein production: not failed

## MRDGVSPEQPKVSVIMPVRDGERWVAEAIRSVQSQTFRDFELLVIDDGSADATPAILAEAAAADPRIFVLTQHRDGLVAGLNRGLAAARAPLIARLDADDIALPDRLARQVDYMTTHPAVVLLGGWATIVDENGQPKGRDMRPNPNDLRATLMKKSPFIHPTVMFRAEAARRVGGYHAAFEAGEDYDFWLRLADIGEVAILPELLIRYREHSASVTRTRQLRQIYSARLAKLAAAARQAGQPDPSAPLTTPPDWHDASPGPFERDSSRLFRMLELADPAVAARIAPSAIDLNAITSQLGTLTAGERKFAQAALLNLLRANKLPSLAARWSAVFLLVRLGPLKAIKAARQLRNR
  protein production: failed

## MKVVERYIMRRAFVVFLAALVWTLAIVWTTQVLAKIDLVTDSGQSSLTFFEVAALILPSIIPIVVPFALVVAVAQTLSVMNSDSELVVVNAAGASRWTIVRPIMLLALAASVFSFAVDNGIDPYARQKNRALVAQSRADLLSLIIQEGTFRKIEDGLFLQIGERLPDNRLGGIFVADSREEGVNLVYYAKTGSVVERGGEKVLMMNDGVIHRKTLTGDLSVIRFTSYAFDMSAFMAAASEVTLLPKDQTTQYLLNPNVNDKLYQQAPQQYRAEIDQRFSEWLYSMVFALIALAVAGDARSHREARVNPLITAITISLFVRWLGFFAASKADEVPQYAYMVYGVPIVASAVAIWFIVSNRTMELPVAWADWMTNLASRVGDGWNALKLRWSRRGTSGQGIG
  protein production: failed

## MAANRRNETASEAHGLDDILSAAAPRPRTALPNVATTVTTVAALYFGREVFLPIAIALLLTFALAPLVSALKRVGIPRIAAVIVSVLSAFAALALFSFVVATQVSELAQNIPVYQTNILAKIRSLKETGVGGGIIAKLSNVVERVGQEIDRQDATLPAATPDKQPREPVPVEIVARERPLEVLQNIVGPLISPLGSAGLIIVVVIFMLLEREDLRDRFIRLVGYGDLHRTTEALQDAAKRVGRYLLMQLVVNIVYAIPIAIGLWILGIPNALLWGLLALALRFVPYIGPAIGMLLPLFLALAVAPGWSLVLWTAALFVVMELVTGNVVEPWLYGSRTGLSPLAIIVAAIFWTWLWGPLGLVLSTPLTVCLVVLGRHVPQFEFLDVLFGNEPVLEPHARLYQRLLAGDPDEATDHAEEMLEEKYLVEFYDKVAIPALLLGERDRARGVMGDQQRRQVAASALALVANLEDDAKEEADGDDAPHVAEAEGEPGDAVEEEATELPDGTGLSVLCAGGRGDLDDAAAAMLAQVLEVQGATASKAGFAEMEPASIRRLELETIDTVVVGFLNRDSVKHARFLVRRLKRAKAALRVGIVFWSETGNGDKEAAAKLAQDINADFVAHGMVDAVTDALSHEPPVALKLVAKRRMRRPRAAPRKVPAAAAG
  protein production: failed

From a protein production outcome set (Wang et al. 2014)
